From patent publication US20190144498A1 (Johns Hopkins, published 2019)
* marks the point of attachment. B(OH)2 = OB(O)*

Biological target: T1, endogenous GlpG in living E. coli cells (Escherichia coli, UniProt P09391 1-276)
T1 sequence (looked up): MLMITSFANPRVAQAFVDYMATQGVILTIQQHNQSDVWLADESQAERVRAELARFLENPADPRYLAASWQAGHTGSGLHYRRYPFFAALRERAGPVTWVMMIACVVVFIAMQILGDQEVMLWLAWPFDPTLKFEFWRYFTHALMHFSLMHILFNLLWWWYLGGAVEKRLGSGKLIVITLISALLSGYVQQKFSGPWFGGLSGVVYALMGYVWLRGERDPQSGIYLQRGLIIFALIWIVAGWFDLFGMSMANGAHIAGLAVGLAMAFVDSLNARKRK
Experiment: cell-based or functional assay

B1: Ac-VRMA-B(OH)2 (peptide)
peptide: Ac-VRMA-{B(OH)2}
SMILES: CSCC[C@H](NC(=O)[C@H](CCCNC(=N)N)NC(=O)[C@@H](NC(C)=O)C(C)C)C(=O)N[C@@H](C)C(=O)B(O)O
EC50 of inhibition of endogenous GlpG activity (TatA-Flag cleavage) in living E. coli cells: < 1000 nM
fold increase in potency of GlpG inhibition relative to the aldehyde (Ac-VRMA-CHO): > 100 fold
fold increase in potency of GlpG inhibition relative to the chloromethylketone (Ac-VRMA-CMK): > 400 fold
